The record followed here is paper PMC12630593.

Some targets named below: NFI-X193 R121P (mouse, UniProt P70257 14-193, R121P); NFI-X193 R116Q (mouse, UniProt P70257 14-193, R116Q); NFI-X193 K125E (mouse, UniProt P70257 14-193, K125E); NFI-X193 R116P (mouse, UniProt P70257 14-193, R116P); NFI-X193 R115W (mouse, UniProt P70257 14-193, R115W); NFI-X193 K113E (mouse, UniProt P70257 14-193, K113E); NFI-X193 (NFI-X DBD) (mouse, UniProt P70257 14-193).

Holding throughout (test): EMSA
A general note: In EMSA bound probe runs differently from free probe, usually more slowly.

B1: NFI-31bp Cy5 probe (dsDNA)
DNA 1: GGGTCTCTTTGGCAGGCAGCCAACCAGCAAA
DNA 2: TTTGCTGGTTGGCTGCCTGCCAAAGAGACCC
What is called Kd is the constant that tells how readily two partners part at equilibrium. The low end stands for a tighter complex, the high end for a looser complex. In the case of B1, the binding result is listed as “binds” in the data set with NFI-X193 R121P; “no binding” in the data set with NFI-X193 R116Q; “no binding” in the data set with NFI-X193 K125E; “no binding” with NFI-X193 R116P; “no binding” with NFI-X193 R115W; “no binding” in the data set with NFI-X193 K113E. Further, in the data set with NFI-X193 (NFI-X DBD), the Kd is 48.1 ± 0.49 nM.
